Measured values: the supplement of paper PMC10126150
± gives the standard deviation of the averaged measurements.

tested on: ATP; assay: switch fluorescence ratio, 500 uM ATP over buffer (Cy3 cluster intensity, sum of 5 cycles each) (fold (ratio)); higher = stronger signal-on switching upon ATP binding; sequences stand for … in TCGTCGGCAGCGTCAGATGTGTATAAGAGACAGTTTTTTTTTTTTTTTTTTTTTTTTT…TC; details: aptamer strand: ATP DNA aptamer (quencher-CACCTGGGGGAGTATTGCGGAGGAAGG + anchor), 100 nM annealed; ATP concentration: 500 uM
Method in brief: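 For every switch-domain sequence, the fluorescence ratio is the mean of per-cluster values, each being summed target-cycle Cy3 intensity over summed buffer-cycle Cy3 intensity. Clusters outside 100-1000 RFU were excluded. On a modified Illumina MiSeq flow-cell, the Cy3-labelled switching-strand clusters were annealed to 100 nM quencher-labelled ATP aptamer, imaged in selection buffer and then after 15 min with 500 uM ATP at 22 °C. Five such cycles were run, with NaOH stripping and re-annealing between them.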
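Further: ATP exposure 15 min at 22 °C before imaging.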

| Sequence | switch fluorescence ratio |
| --- | --- |
| TCTATTCGGG | 0.9484 ± 0.0029 |
| TCTATTGCTG | 0.995 ± 0.02 |
| TCTATTTTTT | 1.01 ± 0.014 |
| TCTCAATGCG | 1.02 ± 0.065 |
| TCTCATGTAG | 1.018 ± 0.009 |
| TCTCCATTGT | 1.04 ± 0.046 |
| TCTCGGGGCT | 0.97 ± 0.011 |
| TCTCGGTGAG | 0.99 ± 0.051 |
| TCTCTAGCTG | 1.05 ± 0.041 |
| TCTCTGGTTA | 1.01 ± 0.018 |
| TCTCTTTAAT | 0.997 ± 0.021 |
| TCTCTTTGTG | 1.02 ± 0.024 |
| TCTGACGTAC | 2.57 ± 0.19 |
| TCTGAGACGC | 1.05 ± 0.019 |
| TCTGAGCAAG | 2.47 ± 0.25 |
| TCTGAGCGGA | 1.14 ± 0.13 |
| TCTGAGGGGG | 1 ± 0.027 |
| TCTGAGTGCG | 1.02 ± 0.02 |
| TCTGAGTTTG | 0.993 ± 0.038 |
| TCTGATGGCT | 1.04 ± 0.05 |
| TCTGCGGGGA | 1.14 ± 0.21 |
| TCTGCTTCAG | 0.973 ± 0.022 |
| TCTGGATCA | 1.0079 ± 0.00014 |
| TCTGGGAAGA | 1.02 ± 0.044 |
| TCTGGGAAGT | 0.986 ± 0.011 |

| Sequence | switch fluorescence ratio |
| --- | --- |
| TCTGGGCCGG | 0.989 ± 0.034 |
| TCTGGGGCGC | 0.984 ± 0.015 |
| TCTGGTAGCG | 1.02 ± 0.021 |
| TCTGGTATGA | 1.01 ± 0.015 |
| TCTGGTGTTT | 0.986 ± 0.024 |
| TCTGGTTGCG | 1 ± 0.037 |
| TCTGGTTGGT | 1.01 ± 0.051 |
| TCTGTAAGGC | 1.39 ± 0.066 |
| TCTGTCCTTC | 1.06 ± 0.054 |
| TCTGTCGGGC | 0.994 ± 0.054 |
| TCTGTTATCA | 1 ± 0.029 |
| TCTGTTGGGC | 0.995 ± 0.025 |
| TCTGTTGTG | 1.03 ± 0.029 |
| TCTGTTTTGG | 1 ± 0.038 |
| TCTTAAAGCA | 1.02 ± 0.06 |
| TCTTAAGAGT | 0.9987 ± 0.0022 |
| TCTTACGATC | 1 ± 0.021 |
| TCTTACGGAC | 1.31 ± 0.017 |
| TCTTAGAGGT | 0.983 ± 0.026 |
| TCTTAGCCCT | 1.01 ± 0.025 |
| TCTTAGGCGG | 0.977 ± 0.039 |
| TCTTAGGGAT | 1 ± 0.052 |
| TCTTATAAGC | 0.984 ± 0.028 |
| TCTTATTTTT | 1.01 ± 0.025 |
| TCTTCTATCT | 0.985 ± 0.039 |

| Sequence | switch fluorescence ratio |
| --- | --- |
| TCTTCTGGCT | 1.02 ± 0.019 |
| TCTTCTGTCG | 1.001 ± 0.0087 |
| TCTTGAAATT | 1.021 ± 0.0031 |
| TCTTGATTTT | 1 ± 0.011 |
| TCTTGGCCAT | 1.24 ± 0.32 |
| TCTTGGGTTG | 0.986 ± 0.029 |
| TCTTGGTCAG | 0.991 ± 0.025 |
| TCTTGGTCGG | 1.026 ± 0.0041 |
| TCTTGGTGT | 0.9898 ± 0.0088 |
| TCTTGTAGCG | 0.986 ± 0.016 |
| TCTTTAAAGT | 1.04 ± 0.083 |
| TCTTTAATAA | 1 ± 0.039 |
| TCTTTATGTG | 0.998 ± 0.016 |
| TCTTTCAAGT | 0.994 ± 0.011 |
| TCTTTCCTGC | 1.022 ± 0.0014 |
| TCTTTCTTTC | 1.01 ± 0.03 |
| TCTTTGGGGT | 1.01 ± 0.012 |
| TCTTTGTATG | 0.991 ± 0.017 |
| TCTTTGTCTA | 0.972 ± 0.02 |
| TCTTTTAAAG | 0.988 ± 0.035 |
| TCTTTTCGAA | 1.01 ± 0.033 |
| TCTTTTCTTT | 1.04 ± 0.043 |
| TCTTTTGGCG | 0.927 ± 0.059 |
| TCTTTTGGGA | 1.16 ± 0.29 |
| TCTTTTGGTG | 1.03 ± 0.019 |

| Sequence | switch fluorescence ratio |
| --- | --- |
| TCTTTTTGGG | 1.13 ± 0.16 |
| TCTTTTTTGC | 0.986 ± 0.073 |
| TCTTTTTTGG | 1 ± 0.042 |
| TGAAAAAGAT | 0.989 ± 0.028 |
| TGAAAAGAGG | 0.988 ± 0.021 |
| TGAAAAGGGC | 0.9875 ± 0.0095 |
| TGAAAATTCG | 1.08 ± 0.11 |
| TGAAAGAACT | 1.16 ± 0.21 |
| TGAAAGTTGG | 0.997 ± 0.013 |
| TGAAATAATT | 0.9791 ± 0.0017 |
| TGAAATGAAT | 0.994 ± 0.02 |
| TGAAATGGTT | 1.01 ± 0.017 |
| TGAAATGTTT | 0.999 ± 0.031 |
| TGAAATTGTT | 1 ± 0.045 |
| TGAACAAATG | 1.04 ± 0.11 |
| TGAACGGCTT | 1.04 ± 0.011 |
| TGAAGAAGGT | 1.03 ± 0.015 |
| TGAAGACTGT | 0.988 ± 0.045 |
| TGAAGCAAAT | 1.77 ± 0.075 |
| TGAAGGATAC | 1.28 ± 0.23 |
| TGAAGGGTTC | 1.12 ± 0.24 |
| TGAAGGGTTT | 0.996 ± 0.052 |
| TGAAGTAGGG | 1.05 ± 0.12 |
| TGAAGTTCGC | 0.969 ± 0.021 |
| TGAAGTTTTC | 0.968 ± 0.022 |
